Assay [1] addresses K48-linked IQF (internally quenched fluorescence) diubiquitin substrate DiUb48-6 (UniProt P0CG48). In words: other fluorescence titration.
Assay [2] has the same target. The assay can be described thus: stopped-flow fluorescence.

B1: C276A USP2 catalytic core (inactive active-site mutant) (domain or fragment)
chain: NSKSAQGLAGLRNLGNTAFMNSILQCLSNTRELRDYCLQRLYMRDLHHGSNAHTALVEEFAKLIQTIWTSSPNDVVSPSEFKTQIQRYAPRFVGYNQQDAQEFLRFLLDGLHNEVNRVTLRPKSNPENLDHLPDDEKGRQMWRKYLEREDSRIGDLFVGQLKSSLTCTDCGYCSTVFDPFWDLSLPIAKRGYPEVTLMDCMRLFTKEDVLDGDEKPTCCRCRGRKRCIKKFSIQRFPKILVLHLKRFSESRIRTSKLTTFVNFPLRDLDLREFASENTNHAVYNLYAVSNHSGTTMGGHYTAYCRSPGTGEWHTFNDSSVTPMSSSQVRTSDAYLLFYELASPPSRM
By Kd is commonly meant the concentration at which binding is half-saturated. Read a high Kd as weaker binding. B1 gave a Kd in assay [1] of 0.27 µM. Also, in assay [2], the K1 (association constant of the first step) turned out to be 2.33 µM⁻¹; the K2 (equilibrium constant of the second step) was determined as 0.59; the Kd from a fit to a single exponential function is 2.42 µM; the k1 (first step, association) was found to be 140000 M⁻¹ s⁻¹. Also, in assay [2], the k−1 (first step, dissociation) was 0.06 s⁻¹; the maximum of kobs,2 was 0.57 s⁻¹; the y-intercept of the linear regression of kobs,1 stood at 0.63 s⁻¹.

Source of the values: article PMC3617563.
